This test deals with T1, His6-Flag-tagged human N-WASP (human, UniProt O00401 1-505).
T1 construct: also called His-Flag-N-WASP; N-WASP of the recombinant N-WASP/WIP complex
Briefly: SEC. The note with it: partners not purified.

This note sets out measurements from PMC2567903, “Repetitive N-WASP–Binding Elements of the Enterohemorrhagic Escherichia coli Effector EspFU Synergistically Activate Actin Assembly” (PLoS Pathogens, 2008).

As a reminder, the stoichiometry N is a count of units in the complex or per binding partner.

T1 sequence (O00401 whole entry): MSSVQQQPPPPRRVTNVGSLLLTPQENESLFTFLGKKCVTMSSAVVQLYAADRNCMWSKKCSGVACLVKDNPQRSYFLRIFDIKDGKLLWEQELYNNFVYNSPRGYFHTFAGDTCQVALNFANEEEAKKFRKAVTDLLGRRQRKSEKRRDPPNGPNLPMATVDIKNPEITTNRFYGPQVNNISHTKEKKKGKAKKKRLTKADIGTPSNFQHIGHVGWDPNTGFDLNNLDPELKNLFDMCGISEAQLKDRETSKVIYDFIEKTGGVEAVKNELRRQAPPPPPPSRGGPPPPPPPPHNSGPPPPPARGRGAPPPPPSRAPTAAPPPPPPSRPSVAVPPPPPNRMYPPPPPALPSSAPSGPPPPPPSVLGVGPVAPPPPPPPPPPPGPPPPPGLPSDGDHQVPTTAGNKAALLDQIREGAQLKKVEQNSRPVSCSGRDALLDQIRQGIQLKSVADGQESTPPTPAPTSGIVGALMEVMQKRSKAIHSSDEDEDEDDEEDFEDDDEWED

B1: His6-Myc-tagged human WIP (natural protein)
chain: not shown
notes: also called His-Myc-WIP
Regarding B1, the “stoichiometry N” value stood at 1.
